Measurements reported in patent US7148006.

Biological target: wild type human PKR, full length (aa 1-551) (human) (UniProt P19525)
Test: cell-based or functional assay

wild type human PKR, full length (aa 1-551) (human), sequence (P19525 whole entry, the tested form may be a part): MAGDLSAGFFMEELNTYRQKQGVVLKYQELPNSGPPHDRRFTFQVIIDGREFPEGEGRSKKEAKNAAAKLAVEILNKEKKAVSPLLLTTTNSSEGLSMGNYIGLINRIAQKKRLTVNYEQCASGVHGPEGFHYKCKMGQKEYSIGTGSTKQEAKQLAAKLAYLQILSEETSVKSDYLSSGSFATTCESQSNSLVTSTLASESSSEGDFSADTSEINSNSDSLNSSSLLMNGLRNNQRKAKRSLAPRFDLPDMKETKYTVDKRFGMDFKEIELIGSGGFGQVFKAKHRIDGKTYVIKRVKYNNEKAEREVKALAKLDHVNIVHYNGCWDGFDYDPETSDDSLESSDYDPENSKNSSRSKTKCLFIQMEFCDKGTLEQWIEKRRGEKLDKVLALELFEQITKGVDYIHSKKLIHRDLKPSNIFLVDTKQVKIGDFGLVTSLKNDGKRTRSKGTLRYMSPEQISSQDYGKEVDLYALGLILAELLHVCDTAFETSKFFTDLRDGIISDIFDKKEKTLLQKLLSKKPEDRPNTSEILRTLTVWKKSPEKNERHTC

Q: “NS5A 1b-2 (untagged, expressed from pYES-NS5A 1b-2)” was tested. Which fold decrease in plating efficiency of yeast RY1-1 on galactose medium did it give?
A: 10 to 100 fold
